Patent US20200209240A1

How the values were obtained:
human CD19 (human) [1] = target: human CD19 (human) (UniProt P15391); assay: dSTORM, isotype control on NALM-6 cells (background), antibody at 5 × 10^-3 µg/ml
human CD19 (human) [2] = target: human CD19 (human) (UniProt P15391); assay: dSTORM, isotype control on NALM-6 cells (background), antibody at 5 µg/ml
human CD19 (human) [3] = target: human CD19 (human) (UniProt P15391); assay: dSTORM, isotype control on NALM-6 cells (background), antibody at 2.5 µg/ml
human CD19 (human) [4] = target: human CD19 (human) (UniProt P15391); assay: dSTORM, isotype control on NALM-6 cells (background), antibody at 10 µg/ml
human CD19 (human) [5] = target: human CD19 (human) (UniProt P15391); assay: dSTORM, isotype control on NALM-6 cells (background), antibody at 5 × 10^-5 µg/ml
human CD19 (human) [6] = target: human CD19 (human) (UniProt P15391); assay: dSTORM, isotype control on NALM-6 cells (background), antibody at 0.5 µg/ml
human CD19 (human) [7] = target: human CD19 (human) (UniProt P15391); assay: dSTORM, isotype control on NALM-6 cells (background), antibody at 0.05 µg/ml
human CD19 (human) [8] = target: human CD19 (human) (UniProt P15391); assay: dSTORM, isotype control on NALM-6 cells (background), antibody at 5 × 10^-4 µg/ml
human CD19 (human) [9] = target: human CD19 (human) (UniProt P15391); assay: dSTORM, antibody titration on NALM-6 cells, antibody at 2.5 µg/ml
human CD19 (human) [10] = target: human CD19 (human) (UniProt P15391); assay: dSTORM, antibody titration on NALM-6 cells, antibody at 5 × 10^-4 µg/ml
human CD19 (human) [11] = target: human CD19 (human) (UniProt P15391); assay: dSTORM, antibody titration on NALM-6 cells, antibody at 5 × 10^-5 µg/ml
human CD19 (human) [12] = target: human CD19 (human) (UniProt P15391); assay: dSTORM on NALM-6 cells, antibody at c≥2.5 µg/ml
human CD19 (human) [13] = target: human CD19 (human) (UniProt P15391); assay: dSTORM, antibody titration on NALM-6 cells, antibody at 5 µg/ml
human CD19 (human) [14] = target: human CD19 (human) (UniProt P15391); assay: dSTORM on NALM-6 cells, antibody at 5×10^-5 µg/ml
human CD19 (human) [15] = target: human CD19 (human) (UniProt P15391); assay: dSTORM, antibody titration on NALM-6 cells, antibody at 0.5 µg/ml
human CD19 (human) [16] = target: human CD19 (human) (UniProt P15391); assay: dSTORM, antibody titration on NALM-6 cells, antibody at 10 µg/ml
human CD19 (human) [17] = target: human CD19 (human) (UniProt P15391); assay: dSTORM, antibody titration on NALM-6 cells, antibody at 0.05 µg/ml
human CD19 (human) [18] = target: human CD19 (human) (UniProt P15391); assay: dSTORM, antibody titration on NALM-6 cells, antibody at 5 × 10^-3 µg/ml

Chain of UniProt P15391 (P15391 20-556): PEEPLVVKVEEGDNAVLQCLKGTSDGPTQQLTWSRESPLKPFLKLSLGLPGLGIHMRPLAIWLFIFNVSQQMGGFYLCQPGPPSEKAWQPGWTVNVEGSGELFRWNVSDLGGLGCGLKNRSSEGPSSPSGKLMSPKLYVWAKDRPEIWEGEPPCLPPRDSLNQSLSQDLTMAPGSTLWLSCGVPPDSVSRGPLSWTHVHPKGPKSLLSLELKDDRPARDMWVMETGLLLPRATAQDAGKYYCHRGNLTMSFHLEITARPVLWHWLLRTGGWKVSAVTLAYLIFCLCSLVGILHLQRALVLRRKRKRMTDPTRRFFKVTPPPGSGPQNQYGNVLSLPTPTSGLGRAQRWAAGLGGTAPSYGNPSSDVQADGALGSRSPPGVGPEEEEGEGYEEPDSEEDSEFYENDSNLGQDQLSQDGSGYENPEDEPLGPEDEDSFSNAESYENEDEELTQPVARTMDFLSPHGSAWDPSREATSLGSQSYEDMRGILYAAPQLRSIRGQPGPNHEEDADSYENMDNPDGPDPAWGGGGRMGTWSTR

Molecules per cell (molecules per cell) (human CD19 (human) [1]) | Molecules per cell (molecules per cell) (human CD19 (human) [2]) | Molecules per cell (molecules per cell) (human CD19 (human) [3]) | Molecules per cell (molecules per cell) (human CD19 (human) [4]) | Molecules per cell (molecules per cell) (human CD19 (human) [5]) | Molecules per cell (molecules per cell) (human CD19 (human) [6]) | Molecules per cell (molecules per cell) (human CD19 (human) [7]) | Molecules per cell (molecules per cell) (human CD19 (human) [8]) | Molecules per cell (molecules per cell) (human CD19 (human) [9]) | Molecules per cell (molecules per cell) (human CD19 (human) [10]) | Molecules per cell (molecules per cell) (human CD19 (human) [11]) | CD19 molecules/µm^2 under saturating conditions (CD19 molecules/µm^2) (human CD19 (human) [12]) | Molecules per cell (molecules per cell) (human CD19 (human) [13]) | CD19 molecules/µm^2 at the detection limit (CD19 molecules/µm^2) (human CD19 (human) [14]) | Molecules per cell (molecules per cell) (human CD19 (human) [15]) | Molecules per cell (molecules per cell) (human CD19 (human) [16]) | Molecules per cell (molecules per cell) (human CD19 (human) [17]) | Molecules per cell (molecules per cell) (human CD19 (human) [18]) | Substance
1.3 | 85 | 50 | 72 | 0 | 44 | 7.1 | 0.8 |  |  |  |  |  |  |  |  |  |  | AF647 isotype control antibody (BioLegend)
 |  |  |  |  |  |  |  | 1780 | 12 | 3.1 | 3.4 | 1860 | 0.006 | 710 | 1880 | 182 | 67 | anti-CD19 antibody, clone HIB19, Alexa Fluor 647 conjugate (BioLegend)
